Laboratory results taken from the supplement of paper PMC5998384.

Columns and labels:
HeLa Kyoto [1] = test: solubility in G1/S (NP-40 vs SDS abundance) (log2 ratio); higher = more soluble; details: cell cycle stage: G1/S
HeLa Kyoto [2] = test: thermal stability score vs G1/S (z-score of summed log2 fold changes over temperatures); higher = more thermally stable than in G1/S
HeLa Kyoto [3] = test: melting temperature (median over replicates), in situ; higher = more thermally stable
HeLa Kyoto [4] = test: solubility change mitosis vs G1/S (difference of NP-40 vs SDS log2 ratios) (log2 ratio difference); higher = more soluble in mitosis
[5] = cell cycle stage: early G1 (4.5 h after nocodazole release)
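Throughout, for melting temperature (median over replicates), in situ: HeLa Kyoto cells synchronized by double thymidine or nocodazole block, proteins quantified by TMT10plex mass spectrometry, three independent biological replicates.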
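Throughout, for solubility change mitosis vs G1/S (difference of NP-40 vs SDS log2 ratios): synchronized HeLa Kyoto cells (double thymidine block for G1/S, nocodazole release for mitosis), protein amounts in NP-40 versus SDS lysates quantified by mass spectrometry, three biological replicates.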
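Throughout, for solubility in G1/S (NP-40 vs SDS abundance): HeLa Kyoto cells arrested at G1/S by double thymidine block, proteins quantified by TMT10plex mass spectrometry in mild NP-40 versus SDS extracts, three biological replicates.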
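Throughout, for thermal stability score vs G1/S (z-score of summed log2 fold changes over temperatures): synchronized HeLa Kyoto cells, proteins quantified by TMT10plex mass spectrometry, three biological replicates, mitosis taken 0.5 h after nocodazole release, G1/S directly after double thymidine block.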

Substance	solubility in G1/S (log2) (HeLa Kyoto [1])	thermal stability score (HeLa Kyoto [2]; [5])	thermal stability score (HeLa Kyoto [2]; cell cycle stage: mitosis)	melting temperature (HeLa Kyoto [3]; cell cycle stage: G1/S) [°C]	melting temperature (HeLa Kyoto [3]; cell cycle stage: mitosis) [°C]	solubility change mitosis (log2) (HeLa Kyoto [4])
MKGTRAIGSVPERSPAGVDLSLTGLPPPVSRRPGSAATTKPIVRSVSVVTGSEQKRKVLEATGPGGSQAINNLRRSNSTTQVSQPRSGSPRPTEPTDFLMLFEGSPSGKKRPASLSTAPSEKGATWNVLDDQPRGFTLPSNARSSSALDSPAGPRRKECTVALAPNFTANNRSNKGAVGNCVTTMVHNRYTPSERAPPLKSSNQTAPSLNNIIKAATCEGSESSGFGKLPKNVSSATHSARNNTGGSTGLPRRKEVTEEEAERFIHQVNQATVTIQRWYRHQVQRRGAGAARLEHLLQAKREEQRQRSGEGTLLDLHQQKEAARRKAREEKARQARRAAIQELQQKRALRAQKASTAERGPPENPRETRVPGMRQPAQELSPTPGGTAHQALKANNTGGGLPAAGPGDRCLPTSDSSPEPQQPPEDRTQDVLAQDAAGDNLEMMAPSRGSAKSRGPLEELLHTLQLLEKEPDVLPRPRTHHRGRYAWASEVTTEDDASSLTADNLEKFGKLSAFPEPPEDGTLLSEAKLQSIMSFLDEMEKSGQDQLDSQQEGWVPEAGPGPLELGSEVSTSVMRLKLEVEEKKQAMLLLQRALAQQRDLTARRVKETEKALSRQLQRQREHYEATIQRHLAFIDQLIEDKKVLSEKCEAVVAELKQEDQRCTERVAQAQAQHELEIKKLKELMSATEKARREKWISEKTKKIKEVTVRGLEPEIQKLIARHKQEVRRLKSLHEAELLQSDERASQRCLRQAEELREQLEREKEALGQQERERARQRFQQHLEQEQWALQQQRQRLYSEVAEERERLGQQAARQRAELEELRQQLEESSSALTRALRAEFEKGREEQERRHQMELNTLKQQLELERQAWEAGRTRKEEAWLLNREQELREEIRKGRDKEIELVIHRLEADMALAKEESEKAAESRIKRLRDKYEAELSELEQSERKLQERCSELKGQLGEAEGENLRLQGLVRQKERALEDAQAVNEQLSSERSNLAQVIRQEFEDRLAASEEETRQAKAELATLQARQQLELEEVHRRVKTALARKEEAVSSLRTQHEAAVKRADHLEELLEQHRRPTPSTK [CEP131]	0.0853	-0.343	1.44	50.5	49.2	0.357
MSDDDSRASTSSSSSSSSNQQTEKETNTPKKKESKVSMSKNSKLLSTSAKRIQKELADITLDPPPNCSAGPKGDNIYEWRSTILGPPGSVYEGGVFFLDITFTPEYPFKPPKVTFRTRIYHCNINSQGVICLDILKDNWSPALTISKVLLSICSLLTDCNPADPLVGSIATQYMTNRAEHDRMARQWTKRYAT [UBE2E1]	0.338	1.73	3.2	48.5	49.5	-0.151
MSTGTFVVSQPLNYRGGARVEPADASGTEKAFEPATGRVIATFTCSGEKEVNLAVQNAKAAFKIWSQKSGMERCRILLEAARIIREREDEIATMECINNGKSIFEARLDIDISWQCLEYYAGLAASMAGEHIQLPGGSFGYTRREPLGVCVGIGAWNYPFQIASWKSAPALACGNAMVFKPSPFTPVSALLLAEIYSEAGVPPGLFNVVQGGAATGQFLCQHPDVAKVSFTGSVPTGMKIMEMSAKGIKPVTLELGGKSPLIIFSDCDMNNAVKGALMANFLTQGQVCCNGTRVFVQKEILDKFTEEVVKQTQRIKIGDPLLEDTRMGPLINRPHLERVLGFVKVAKEQGAKVLCGGDIYVPEDPKLKDGYYMRPCVLTNCRDDMTCVKEEIFGPVMSILSFDTEAEVLERANDTTFGLAAGVFTRDIQRAHRVVAELQAGTCFINNYNVSPVELPFGGYKKSGFGRENGRVTIEYYSQLKTVCVEMGDVESAF [ALDH9A1]	0.24	0.248	-0.642	57.1	57.3	-0.0784
MESAGLEQLLRELLLPDTERIRRATEQLQIVLRAPAALPALCDLLASAADPQIRQFAAVLTRRRLNTRWRRLAAEQRESLKSLILTALQRETEHCVSLSLAQLSATIFRKEGLEAWPQLLQLLQHSTHSPHSPEREMGLLLLSVVVTSRPEAFQPHHRELLRLLNETLGEVGSPGLLFYSLRTLTTMAPYLSTEDVPLARMLVPKLIMAMQTLIPIDEAKACEALEALDELLESEVPVITPYLSEVLTFCLEVARNVALGNAIRIRILCCLTFLVKVKSKALLKNRLLPPLLHTLFPIVAAEPPPGQLDPEDQDSEEEELEIELMGETPKHFAVQVVDMLALHLPPEKLCPQLMPMLEEALRSESPYQRKAGLLVLAVLSDGAGDHIRQRLLPPLLQIVCKGLEDPSQVVRNAALFALGQFSENLQPHISSYSREVMPLLLAYLKSVPLGHTHHLAKACYALENFVENLGPKVQPYLPELMECMLQLLRNPSSPRAKELAVSALGAIATAAQASLLPYFPAIMEHLREFLLTGREDLQPVQIQSLETLGVLARAVGEPMRPLAEECCQLGLGLCDQVDDPDLRRCTYSLFAALSGLMGEGLAPHLEQITTLMLLSLRSTEGIVPQYDGSSSFLLFDDESDGEEEEELMDEDVEEEDDSEISGYSVENAFFDEKEDTCAAVGEISVNTSVAFLPYMESVFEEVFKLLECPHLNVRKAAHEALGQFCCALHKACQSCPSEPNTAALQAALARVVPSYMQAVNRERERQVVMAVLEALTGVLRSCGTLTLKPPGRLAELCGVLKAVLQRKTACQDTDEEEEEEDDDQAEYDAMLLEHAGEAIPALAAAAGGDSFAPFFAGFLPLLVCKTKQGCTVAEKSFAVGTLAETIQGLGAASAQFVSRLLPVLLSTAQEADPEVRSNAIFGMGVLAEHGGHPAQEHFPKLLGLLFPLLARERHDRVRDNICGALARLLMASPTRKPEPQVLAALLHALPLKEDLEEWVTIGRLFSFLYQSSPDQVIDVAPELLRICSLILADNKIPPDTKAALLLLLTFLAKQHTDSFQAALGSLPVDKAQELQAVLGLS [IPO4]	-0.204	0.678	2.82	49.6	49.9	-0.104
MDGKQGGMDGSKPAGPRDFPGIRLLSNPLMGDAVSDWSPMHEAAIHGHQLSLRNLISQGWAVNIITADHVSPLHEACLGGHLSCVKILLKHGAQVNGVTADWHTPLFNACVSGSWDCVNLLLQHGASVQPESDLASPIHEAARRGHVECVNSLIAYGGNIDHKISHLGTPLYLACENQQRACVKKLLESGADVNQGKGQDSPLHAVARTASEELACLLMDFGADTQAKNAEGKRPVELVPPESPLAQLFLEREGPPSLMQLCRLRIRKCFGIQQHHKITKLVLPEDLKQFLLHL [ASB9]	0.762	-0.645	-1.33	55	54.2	-0.182
MLAFAARTVVKPLGFLKPFSLMKASSRFKAHQDALPRLPVPPLQQSLDHYLKALQPIVSEEEWAHTKQLVDEFQASGGVGERLQKGLERRARKTENWLSEWWLKTAYLQYRQPVVIYSSPGVMLPKQDFVDLQGQLRFAAKLIEGVLDFKVMIDNETLPVEYLGGKPLCMNQYYQILSSCRVPGPKQDTVSNFSKTKKPPTHITVVHNYQFFELDVYHSDGTPLTADQIFVQLEKIWNSSLQTNKEPVGILTSNHRNSWAKAYNTLIKDKVNRDSVRSIQKSIFTVCLDATMPRVSEDVYRSHVAGQMLHGGGSRLNSGNRWFDKTLQFIVAEDGSCGLVYEHAAAEGPPIVTLLDYVIEYTKKPELVRSPLVPLPMPKKLRFNITPEIKSDIEKAKQNLSIMIQDLDITVMVFHHFGKDFPKSEKLSPDAFIQMALQLAYYRIYGQACATYESASLRMFHLGRTDTIRSASMDSLTFVKAMDDSSVTEHQKVELLRKAVQAHRGYTDRAIRGEAFDRHLLGLKLQAIEDLVSMPDIFMDTSYAIAMHFHLSTSQVPAKTDCVMFFGPVVPDGYGVCYNPMEAHINFSLSAYNSCAETNAARLAHYLEKALLDMRALLQSHPRAKL [CRAT]	-0.0625	1.13	1.4	49.4	49.4	-0.142
MTAVHAGNINFKWDPKSLEIRTLAVERLLEPLVTQVTTLVNTNSKGPSNKKRGRSKKAHVLAASVEQATENFLEKGDKIAKESQFLKEELVAAVEDVRKQGDLMKAAAGEFADDPCSSVKRGNMVRAARALLSAVTRLLILADMADVYKLLVQLKVVEDGILKLRNAGNEQDLGIQYKALKPEVDKLNIMAAKRQQELKDVGHRDQMAAARGILQKNVPILYTASQACLQHPDVAAYKANRDLIYKQLQQAVTGISNAAQATASDDASQHQGGGGGELAYALNNFDKQIIVDPLSFSEERFRPSLEERLESIISGAALMADSSCTRDDRRERIVAECNAVRQALQDLLSEYMGNAGRKERSDALNSAIDKMTKKTRDLRRQLRKAVMDHVSDSFLETNVPLLVLIEAAKNGNEKEVKEYAQVFREHANKLIEVANLACSISNNEEGVKLVRMSASQLEALCPQVINAALALAAKPQSKLAQENMDLFKEQWEKQVRVLTDAVDDITSIDDFLAVSENHILEDVNKCVIALQEKDVDGLDRTAGAIRGRAARVIHVVTSEMDNYEPGVYTEKVLEATKLLSNTVMPRFTEQVEAAVEALSSDPAQPMDENEFIDASRLVYDGIRDIRKAVLMIRTPEELDDSDFETEDFDVRSRTSVQTEDDQLIAGQSARAIMAQLPQEQKAKIAEQVASFQEEKSKLDAEVSKWDDSGNDIIVLAKQMCMIMMEMTDFTRGKGPLKNTSDVISAAKKIAEAGSRMDKLGRTIADHCPDSACKQDLLAYLQRIALYCHQLNICSKVKAEVQNLGGELVVSGVDSAMSLIQAAKNLMNAVVQTVKASYVASTKYQKSQGMASLNLPAVSWKMKAPEKKPLVKREKQDETQTKIKRASQKKHVNPVQALSEFKAMDSI [CTNNA1]	0.402	-0.182	-0.645	52.6	52.2	-0.0404
MALPIIVKWGGQEYSVTTLSEDDTVLDLKQFLKTLTGVLPERQKLLGLKVKGKPAENDVKLGALKLKPNTKIMMMGTREESLEDVLGPPPDNDDVVNDFDIEDEVVEVENREENLLKISRRVKEYKVEILNPPREGKKLLVLDVDYTLFDHRSCAETGVELMRPYLHEFLTSAYEDYDIVIWSATNMKWIEAKMKELGVSTNANYKITFMLDSAAMITVHTPRRGLIDVKPLGVIWGKFSEFYSKKNTIMFDDIGRNFLMNPQNGLKIRPFMKAHLNRDKDKELLKLTQYLKEIAKLDDFLDLNHKYWERYLSKKQGQ [UBLCP1]	0.159	0.941	2.39	49.5	50	-0.142
MAGDSEQTLQNHQQPNGGEPFLIGVSGGTASGKSSVCAKIVQLLGQNEVDYRQKQVVILSQDSFYRVLTSEQKAKALKGQFNFDHPDAFDNELILKTLKEITEGKTVQIPVYDFVSHSRKEETVTVYPADVVLFEGILAFYSQEVRDLFQMKLFVDTDADTRLSRRVLRDISERGRDLEQILSQYITFVKPAFEEFCLPTKKYADVIIPRGADNLVAINLIVQHIQDILNGGPSKRQTNGCLNGYTPSRKRQASESSSRPH [UCK2]	0.28	0.367	-1.36	52.2	52.9	0.265
DNAJA2	0.258	-0.554	-2.34	51.7	51.7	-0.191
